Experimental findings from article PMC5707354 (Nature Communications, 2017) are described below.

For series [1], the target named is N-terminal tail domain of myosin VI (NMVITAIL 814-1060) (human). The series is described as follows: fluorescence polarisation; fluorescence anisotropy; unlabelled protein titrated against the FITC-labelled partner (NMVITAIL against FITC-CBD and CBD against FITC-NMVITAIL); 25 C, 50 mM Tris-HCl pH 7.5, 150 mM NaCl, 1 mM DTT.
The target of series [2] is T1, NDP52 (Human, UniProt Q13137 1-446).
T1 sequence: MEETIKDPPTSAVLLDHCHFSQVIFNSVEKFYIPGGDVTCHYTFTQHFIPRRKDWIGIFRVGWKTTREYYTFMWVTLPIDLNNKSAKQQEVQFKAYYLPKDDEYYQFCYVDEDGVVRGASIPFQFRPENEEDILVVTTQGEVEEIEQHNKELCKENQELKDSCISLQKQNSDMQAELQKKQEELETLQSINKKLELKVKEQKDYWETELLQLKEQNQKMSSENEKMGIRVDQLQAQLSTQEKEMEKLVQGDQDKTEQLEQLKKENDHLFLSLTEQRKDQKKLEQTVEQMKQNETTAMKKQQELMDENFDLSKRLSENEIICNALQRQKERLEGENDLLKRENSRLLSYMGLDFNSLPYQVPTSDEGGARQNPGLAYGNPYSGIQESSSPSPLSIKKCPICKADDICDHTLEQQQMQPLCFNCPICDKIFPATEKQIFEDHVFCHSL
The series is described as follows: FRET or BRET; FITC-MVI_TAIL constructs and Alexa555-NDP52 (1 uM); 25 C, 50 mM Tris-HCl pH 7.5, 150 mM NaCl, 1 mM DTT.

Series [3] concerns the target Myosin VI tail (MVITAIL 814-1253) (human). Briefly: FRET or BRET; AF555-labelled pool titrated against the FITC-labelled pool of the same construct, no additive; monomer to dimer; 25 C, 50 mM Tris-HCl pH 7.5, 150 mM NaCl, 1 mM DTT.
Series [4] has the same target. Briefly: FRET or BRET; AF555-MVITAIL and FITC-MVITAIL in the presence of 20 uM DNA; monomer to dimer; 25 C, 50 mM Tris-HCl pH 7.5, 150 mM NaCl, 1 mM DTT.
For series [5] the target is unchanged. Briefly: FRET or BRET; AF555-labelled pool titrated against the FITC-labelled pool of the same construct in the presence of 20 uM NDP52; monomer to dimer; 25 C, 50 mM Tris-HCl pH 7.5, 150 mM NaCl, 1 mM DTT.
For series [6] the target is unchanged. The series is described as follows: FRET or BRET; AF555-MVITAIL titrated against FITC-MVITAIL in the presence of 20 uM NDP52 and DNA; monomer to dimer; 25 C, 50 mM Tris-HCl pH 7.5, 150 mM NaCl, 1 mM DTT.
Series [7] concerns the target Full-length myosin VI (non-insert isoform), recombinant, co-expressed with calmodulin (human | Xenopus) (UniProt Q9UM54).
In series [8] the target is T1, NDP52.
For series [9], the target named is Cargo binding domain of myosin VI (CBD 1060-1253) (human). Briefly: fluorescence polarisation; fluorescence anisotropy; unlabelled protein titrated against the FITC-labelled partner (NMVITAIL against FITC-CBD and CBD against FITC-NMVITAIL); 25 C, 50 mM Tris-HCl pH 7.5, 150 mM NaCl, 1 mM DTT.
Series [10] has the same target. Briefly: FRET or BRET; Alexa555-NMVITAIL titrated to FITC-CBD (1 uM); 25 C, 50 mM Tris-HCl pH 7.5, 150 mM NaCl, 1 mM DTT; quadratic binding fit.
In series [11] the target is N-terminal tail domain of myosin VI (NMVITAIL 814-1060) (human). The series is described as follows: FRET or BRET; AF555-labelled pool titrated against the FITC-labelled pool of the same construct, no additive; monomer to dimer; 25 C, 50 mM Tris-HCl pH 7.5, 150 mM NaCl, 1 mM DTT.
For a further series, the target named is T2, NDP52 (recombinant) (UniProt Q13137 1-446, Alexa Fluor 555 label in the FRET titration with MVI_TAIL; unlabelled where added as a third component).
T2 construct: NDP52 (SKICH domain, coiled-coil, two zinc fingers); also called Alexa555-NDP52; source: E. coli BL21 DE3, purified (HisTrap, Superdex 200)
T2 sequence (looked up): T1 sequence
Briefly: FRET or BRET; FITC-MVI_TAIL constructs and Alexa555-NDP52 (1 uM); 25 C, 50 mM Tris-HCl pH 7.5, 150 mM NaCl, 1 mM DTT. The note with it: both partners purified.

A further series deals with CBD (Human, UniProt Q9UM54-5 1060-1253). Briefly: fluorescence anisotropy; FAM-DNA 50 nM; assay buffer, salt, pH and temperature not given in the material (duplex annealing in water or 50 mM Tris-HCl pH 7.5, 150 mM NaCl, 3 mM MgCl2). As to conditions: protein: recombinant, tags: His-tag (pET28).
For series [12], the target named is Myosin VI tail, large insert (MVITAIL (large insert) 814-1284) (human). The series is described as follows: FRET or BRET; FITC-MVITAIL constructs and Alexa555-NDP52 (1 uM NDP52 by the legend of Fig. 4d); 25 C, 50 mM Tris-HCl pH 7.5, 150 mM NaCl, 1 mM DTT; quadratic binding fit.
For series [13], the target named is Myosin VI tail RRL/ARL mutant (MVITAIL RRL/ARL, R1116A) (human). The series is described as above.
The target in series [14] is Myosin VI tail RRL/RRA mutant (MVITAIL RRL/RRA, L1118A) (human). Described as above.
Series [15] addresses Myosin VI tail RRL/AAA mutant (MVITAIL RRL/AAA) (human). The series is described as above.
Series [16] addresses Myosin VI tail (MVITAIL 814-1253) (human). Described as above.
The target in another series is MVITAIL(W1221A) (Human, UniProt Q9UM54-5 814-1253, W1221A). Briefly: fluorescence anisotropy; FAM-DNA 50 nM; assay buffer, salt, pH and temperature not given in the material (duplex annealing in water or 50 mM Tris-HCl pH 7.5, 150 mM NaCl, 3 mM MgCl2). The note with it: protein: recombinant; tags: His-tag (pET151), TEV-cleaved; label: 3' FAM on strand A; blunt.
In a further series the target is MVITAIL (Human, UniProt Q9UM54-5 814-1253). The description is as above. The note with it: protein: recombinant; tags: His-tag (pET151), TEV-cleaved; label: 3' FAM on strand A; blunt.
For series [17], the target named is T1, NDP52. The series is described as follows: fluorescence intensity titration; FAM-DNA 50 nM; assay buffer, salt, pH and temperature not given in the material (duplex annealing in water or 50 mM Tris-HCl pH 7.5, 150 mM NaCl, 3 mM MgCl2). As to conditions: protein: recombinant; tags: His-tag (pET151), TEV-cleaved; chain copies: 2; label: 3' FAM on strand A; blunt.

The mark [18] stands for this setting: label: 3' FAM on strand A, blunt.

Chain of MVITAIL (Q9UM54 other isoform, or with tags, fused parts or gaps): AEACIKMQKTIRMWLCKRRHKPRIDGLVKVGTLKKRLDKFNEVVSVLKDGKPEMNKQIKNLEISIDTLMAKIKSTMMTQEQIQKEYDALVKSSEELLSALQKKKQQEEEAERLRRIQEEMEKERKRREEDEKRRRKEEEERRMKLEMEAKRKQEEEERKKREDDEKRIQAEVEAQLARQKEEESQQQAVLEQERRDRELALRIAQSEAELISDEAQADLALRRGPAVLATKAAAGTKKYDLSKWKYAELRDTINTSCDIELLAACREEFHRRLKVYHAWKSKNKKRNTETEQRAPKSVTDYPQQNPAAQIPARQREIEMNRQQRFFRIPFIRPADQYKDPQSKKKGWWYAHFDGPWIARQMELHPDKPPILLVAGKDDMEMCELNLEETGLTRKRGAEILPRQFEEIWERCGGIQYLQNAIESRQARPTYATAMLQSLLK
Chain of MVITAIL(W1221A) (Q9UM54 other isoform, or with tags, fused parts or gaps W1221A | W1221A W1221A): as the sequence (Q9UM54 other isoform, or with tags, fused parts or gaps) above, with W408A counted along it

As to “Cargo binding domain of myosin VI (CBD 1060-1253) (domain or fragment)”, the equilibrium dissociation constant (Kd) in series [1] was determined as 4.2 µM.
As for “MVI_(TAIL) with the leucine of the RRL motif removed (RRA) (domain or fragment)”, the fold decrease in affinity against wild-type MVI TAIL in the series with NDP52 [2] amounted to 10 fold.
On to “Myosin VI tail (MVITAIL 814-1253) (domain or fragment)”, for which the Kd was 27 µM in series [3], 29 µM in series [4], 2.3 µM in [5] and 2.5 µM in series [6].
“Full-length myosin VI (non-insert isoform), recombinant, co-expressed with calmodulin (from UniProt Q9UM54-5 1-1253; P0DP33 1-149) (complex)”: in [7], the steady-state actin-activated ATPase rate constant of MVI, reduction on addition of NDP52 was 50%. The velocity of actin filaments in the sliding filament assay with MVI pre-incubated with / immobilised through NDP52 (0.1, 0.5 or 1 μM); two populations, 50–60 and 90 nm s^−1 with NDP52 [8] was 90 nm/s.
Consider “N-terminal tail domain of myosin VI (NMVITAIL 814-1060) (domain or fragment)”, for which the Kd in series [9] worked out at 4 µM; in [10] it was 4.5 µM; in series [11], 3.1 µM.

B1: MVI_(TAIL) (large insert) (domain or fragment)
chain: AEACIKMQKTIRMWLCKRRHKPRIDGLVKVGTLKKRLDKFNEVVSVLKDGKPEMNKQIKNLEISIDTLMAKIKSTMMTQEQIQKEYDALVKSSEELLSALQKKKQQEEEAERLRRIQEEMEKERKRREEDEKRRRKEEEERRMKLEMEAKRKQEEEERKKREDDEKRIQAEVEAQLARQKEEESQQQAVLEQERRDRELALRIAQSEAELISDEAQADLALRSLDSYPVTSKNDGTRPKMTPEQMAKEMSEFLSRGPAVLATKAAAGTKKYDLSKWKYAELRDTINTSCDIELLAACREEFHRRLKVYHAWKSKNKKRNTETEQRAPKSVTDYAQQNPAAQIPARQREIEMNRQQRFFRIPFIRPADQYKDPQSKKKGWWYAHFDGPWIARQMELHPDKPPILLVAGKDDMEMCELNLEETGLTRKRGAEILPRQFEEIWERCGGIQYLQNAIESRQARPTYATAMLQSLLK
modifications: FITC label
B1: in the series with NDP52 (recombinant), the “fold reduction of binding against wild-type MVI_TAIL” value worked out at 4 fold.
Turning to TTTTTTTTTTTTTTTTTTTT (ssDNA) [dT20], the Kd with CBD is 0.12 ± 0.025 µM.
With TCTGGCTCTGGATTACCCGC (ssDNA) [ss20], the Kd in the series with CBD (label: 3' FAM) stood at 0.11 ± 0.035 µM.

B2: NDP52 (1-end) (natural protein)
chain: T1 sequence
modifications: Alexa Fluor 555 label (site not stated)
For the molecule B2, the Kd in [12] was found to be 9.8 µM; in series [13], 4.6 µM; in series [14], 21 µM; in [15] it was 63 µM; in [16], 3.2 µM.

B3: ds15 (15 bp) (dsDNA)
DNA 1: TTAGTTGTTCTCTGG
DNA 2: CCAGAGAACAACTAA
Turning to B3, in the series with CBD (setting [18]), the Kd was 0.5 ± 0.045 µM.

B4: ds40 (dsDNA)
DNA 1: TTAGTTGTTCGTAGTGCTCGTCTGGCTCTGGATTACCCGC
DNA 2: GCGGGTAATCCAGAGCCAGACGAGCACTACGAACAACTAA
For the molecule B4, the Kd with CBD (setting [18]) came to 0.1 µM; in the series with MVITAIL(W1221A), 0.3 ± 0.03 µM; with MVITAIL, 2.5 µM; with NDP52 [17], 0.08 ± 0.025 µM.
Consider TTAGTTGTTCGTAGTGCTCGTCTGGCTCTGGATTACCCGC (ssDNA) [ss40], for which the dissociation constant Kd with CBD (label: 3' FAM) turned out to be 0.12 ± 0.035 µM.
